Assay results: publication PMC4072051
Values joined by “and” are separate entries in the source; they are usually repeats but may differ in a detail not shown here. Identical values can stand only once.

Target: Recombinant TssK (SMA2253), purified from S. marcescens, His6 tag removed (Serratia marcescens Db10)
Test: AUC; sedimentation velocity, 4°C, 49000 rev./min, 50 mM Tris/HCl pH 7.5, 250 mM NaCl; Peak 1 at 0.2 to 0.7 mg/ml, Peak 2 at 0.2 and 0.5 mg/ml; c(s) analysis in SEDFIT

“Recombinant TssK (SMA2253), purified from S. marcescens, His6 tag removed (natural protein)” was tested, and the stoichiometry N was 3 and 6.
